One substance from patent publication US6448390 can be followed below.

The target of this test is amphotropic retrovirus receptor, endogenous on human 293 cells (human) (UniProt Q08357). In words: cell-based or functional assay.
UniProt Q08357, sequence (Q08357 whole entry): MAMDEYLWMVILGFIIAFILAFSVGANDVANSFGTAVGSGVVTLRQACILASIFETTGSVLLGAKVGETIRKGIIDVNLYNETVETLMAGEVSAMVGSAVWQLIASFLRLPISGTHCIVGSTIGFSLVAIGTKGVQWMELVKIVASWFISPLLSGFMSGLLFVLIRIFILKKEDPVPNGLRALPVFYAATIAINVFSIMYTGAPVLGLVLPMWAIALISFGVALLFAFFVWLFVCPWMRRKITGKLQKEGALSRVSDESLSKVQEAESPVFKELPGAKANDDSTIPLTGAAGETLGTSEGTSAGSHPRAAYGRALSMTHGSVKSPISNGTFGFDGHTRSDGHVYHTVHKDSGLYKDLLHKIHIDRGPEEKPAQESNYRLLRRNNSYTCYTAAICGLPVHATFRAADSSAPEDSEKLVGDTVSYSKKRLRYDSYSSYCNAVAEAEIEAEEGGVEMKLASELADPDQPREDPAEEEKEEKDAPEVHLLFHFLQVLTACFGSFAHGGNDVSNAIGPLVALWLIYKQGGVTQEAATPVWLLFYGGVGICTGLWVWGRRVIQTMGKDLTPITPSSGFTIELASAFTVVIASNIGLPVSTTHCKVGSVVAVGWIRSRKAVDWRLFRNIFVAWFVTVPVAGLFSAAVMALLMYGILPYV

In turn, “ampho/eco+Q227R/D243Y fusion envelope protein: residues 1-208 of amphotropic 4070A envelope protein fused between Serine 6 and Proline 7 of MoMLV mutant envelope protein Q227R/D243Y” showed a delivery of the lacZ gene (infectious titer) to human 293 cells expressing the amphotropic receptor but not the ecotropic receptor of 1000 fold.
